Reference: PMC3014449 (2010)
Positions of bridges follow the written chain, without caps; N, C: chain ends. Non-standard residues stand in square brackets, D forms with d. Trp(1-Me) = Cn1cc(C[C@H](N)C(=O)O)c2ccccc21; NMeI = CC[C@H](C)[C@H](NC)C(=O)O; Sar = CNCC(=O)O

Biological target: C3b C3b (Homo sapiens, UniProt P01024)
Experiment: SPR

C3b C3b, sequence (P01024 566-670): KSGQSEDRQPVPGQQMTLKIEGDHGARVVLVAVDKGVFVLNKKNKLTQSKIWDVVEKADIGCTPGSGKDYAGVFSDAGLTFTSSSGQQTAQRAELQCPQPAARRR

B1: compstatin analogue 21 (peptide)
chain: Ac-ICV[Trp(1-Me)]QDW[Sar]AHRC[NMeI]-NH2
modifications: disulfide 2-12
SMILES: CC[C@H](C)[C@H](NC(C)=O)C(=O)N[C@H]1CSSC[C@@H](C(=O)N(C)[C@H](C(N)=O)[C@@H](C)CC)NC(=O)[C@H](CCCNC(=N)N)NC(=O)[C@H](Cc2c[nH]cn2)NC(=O)[C@H](C)NC(=O)CN(C)C(=O)[C@H](Cc2c[nH]c3ccccc23)NC(=O)[C@H](CC(=O)O)NC(=O)[C@H](CCC(N)=O)NC(=O)[C@H](Cc2cn(C)c3ccccc23)NC(=O)[C@H](C(C)C)NC1=O
A Kd of 2.3 nM was found for B1 in this work.
